From PMC4103810, “Flexibility of PCNA-Protein Interface Accommodates Differential Binding Partners” (PLoS ONE, 2014)
No end group written: not given here. *: point of attachment. FITC = O=C1OC2(c3ccc(O)cc3Oc3cc(O)ccc32)c2ccc(NC(=S)*)cc21; Ahx = NCCCCCC(=O)O

How the values were obtained:
[1] = Aggregation observed in the fluorescence polarization competition assay; format: physicochemical; conditions: FP competition assay, binding buffer; result in words
Description: Competition assays were analyzed by fluorescence polarization on a DTX880 Multimode plate reader (Beckman Coulter) using an excitation of 485 nm and an emission filter at 535 nm at 30°C. Anisotropy values (N = 4) were statistically evaluated using Grubbs' test for outliers at a significance level of 0.05 and converted to fraction of FITC-PL peptide bound (fb) using Eq. (3) and represented as mean ± standard error of mean (Y).

recombinant PCNA protein [2] = molecular target: T1, recombinant PCNA protein (Homo sapiens, UniProt P12004); assay: Fluorescence polarization competition assay (displacement of FITC-PL peptide from PCNA); format: binding; set-up: (His)6 (N); TEV protease recognition site (N); made in house; host or cells: E. coli BL21(DE3)
T1 sequence (P12004 whole entry): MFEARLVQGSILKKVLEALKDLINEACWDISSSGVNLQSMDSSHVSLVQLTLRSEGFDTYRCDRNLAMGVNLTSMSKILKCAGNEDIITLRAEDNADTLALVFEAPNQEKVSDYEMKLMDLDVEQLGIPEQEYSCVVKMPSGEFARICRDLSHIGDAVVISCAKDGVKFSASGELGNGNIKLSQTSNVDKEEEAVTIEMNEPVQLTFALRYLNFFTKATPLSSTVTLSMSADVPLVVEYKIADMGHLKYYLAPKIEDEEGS
Description: (3) and represented as mean ± standard error of mean (Y). Fraction of the FITC-PL peptide bound (Y) was plotted as a function of the logarithm of the 12 amino acid peptide antagonist concentration (X), and IC50 values were determined by fitting the data to Eq. […] Anisotropy values were also analyzed using complete and incomplete binding models without non-specific effects as outlined in Roehrl et al..

recombinant PCNA protein [3] = molecular target: T1, recombinant PCNA protein; assay: ITC; conditions: cited from earlier work
recombinant PCNA protein [4] = molecular target: T2, recombinant PCNA protein (human, UniProt P12004 1-261); assay: fluorescence polarisation; competition: increasing unlabeled 12-mer peptide against 50 nM N-terminal FITC-PL peptide and 1 µM PCNA (monomer concentration); 25 mM HEPES pH 7.4, 10% glycerol, 0.01% Triton X-100; 30 min at room temperature, read at 30°C; fraction of FITC-PL bound fitted to the complete (Eq. 6) or incomplete (Eq. 7, four-state) competition model of Roehrl et al.; estimated dissociation constants; conditions: both partners purified
T2 construct: PCNA (proliferating cell nuclear antigen), human; The vector has a TEV protease site after the (His)6 tag, and no cleavage is described; also called (His)6-PCNA; source: E. coli BL21(DE3), purified (Ni-NTA, dialysis)
T2 sequence (P12004 whole entry): as above

[5] = molecular target: T3, recombinant PCNA protein (N-terminal (His)6-PCNA) (human, UniProt P12004 1-261); assay: fluorescence polarisation; direct binding: increasing recombinant PCNA (monomer concentration) added to 50 nM FITC-PL peptide; 25 mM HEPES pH 7.4, 10% glycerol, 0.01% Triton X-100; 30 min at room temperature, read at 30°C; fit with a Hill slope; conditions: both partners purified
T3 construct: PCNA, human; amplified by PCR from a template plasmid (Genecoepia) into pEV-L8, which has an N-terminal (His)6-tag and a TEV protease recognition site; No TEV cleavage is described; also called human PCNA; source: E. coli BL21(DE3), purified (Ni-NTA)
T3 sequence (P12004 whole entry): as above

[6] = molecular target: T3, recombinant PCNA protein (N-terminal …); assay: fluorescence polarisation; competition: increasing unlabeled peptide with 50 nM FITC-PL peptide and 1 µM PCNA (monomer concentration); 25 mM HEPES pH 7.4, 10% glycerol, 0.01% Triton X-100; 30 min at room temperature, read at 30°C; Ki from a modified Cheng-Prusoff equation; conditions: both partners purified
[7] = molecular target: T3, recombinant PCNA protein (N-terminal …); assay: as above; conditions: both partners purified; remark: listed apart in the source

IC50 [6] | Ki [6] | fb at [peptide]max (fraction of FITC-PL bound) [6] | Molecule | also measured
 |  |  | GVQRNHETAFQG [Mcl-1] | aggregation of the tracer at higher concentrations [1]: not observed; binding to recombinant PCNA in the competition assay (recombinant PCNA protein [2]; result in words): did not bind
 |  |  | p21 12-mer PIP box peptide PIP box (from UniProt P38936) | Kd (recombinant PCNA protein [3]): 640 nM
 |  |  | RRQTSMTDFYHS-NH2 [p21] | Kd (recombinant PCNA protein [2]; estimated dissociation constant of competitive ligand-PCNA interaction, Roehrl et al. binding models, Eq. (6)/(7), read-out: Kd2): 615 ± 251 nM; Kd (recombinant PCNA protein [2]; incomplete competition model (four state), Roehrl et al., Eq. (7), read-out: Kd3): 3100 ± 200 nM
 |  |  | NRQVSITGFFQR [DNA polymerase δ (p66 subunit), 12-amino acid PIP Box peptide modeled after the p66 subunit of DNA polymerase δ] | Hill Slope (recombinant PCNA protein [2]; Hill slope n of the fit to Eq. (4), 50 nM FITC-PL, 1 µM PCNA (monomer)): −1.2±0.2
 |  |  | NRQVSITGFFQR (PIP Box stretch of the p66 subunit of DNA polymerase δ (POLD3); Made on CLEAR Amide resin, so the C-terminus is probably an amide; source: synthetic peptide (solid phase, HPLC purified)) [DNA polymerase δ (p66 subunit) 12-mer PIP Box peptide] | Kd (recombinant PCNA protein [4]): 20.8 ± 4.4 µM
 |  |  | PGQRSISLRYEG (PIP Box stretch of Abl (ABL1), lying in the SH2 domain; Made on CLEAR Amide resin, so the C-terminus is probably an amide; source: synthetic peptide (solid phase, HPLC purified)) [Abl 12-mer PIP Box peptide] | Kd (recombinant PCNA protein [4]): 52.9 ± 14.7 µM
 |  |  | {FITC-Ahx}-SAVLQKKITDYFHPKK (Synthesised on CLEAR Amide resin, so the C-terminus is probably an amide (surmised); also called FITC-PL peptide; FITC-PL; source: synthetic peptide (solid phase, HPLC purified)) [N-terminal fluorescein isothiocyanate (FITC) labeled PL peptide] | Kd [5]: 760 ± 19 nM
0.145 ± 0.013 µM | 0.136 µM | 0 | SAVLQKKITDYFHPKK (Synthesised on CLEAR Amide resin, so the C-terminus is probably an amide (surmised); also called control PL peptide; source: synthetic peptide (solid phase, HPLC purified)) [unlabeled POGO-ligase (PL) peptide] | IC50 [7]: 144 ± 13 nM
7.5 ± 0.3 µM | 2.9 µM | 0 | TLQYLLKHFFKL (12-mer modeled after the PIP Box of PI3-kinase p85α, found by a screen of the human genome; Synthesised on CLEAR Amide resin, so the C-terminus is probably an amide (surmised); also called p85α peptide; PI3-kinase (p85α regulatory domain); source: synthetic peptide (solid phase, HPLC purified)) [PI3K (p85α subunit) 12-mer PIP Box peptide mimic] | 
71.3 ± 12.1 µM | 30.4 µM | 0.1 | PGQRSISLRYEG (Synthesised on CLEAR Amide resin, so the C-terminus is probably an amide (surmised); also called Abl peptide; source: synthetic peptide (solid phase, HPLC purified)) [Abl 12-mer PIP Box peptide mimic] | 
1.8 ± 0.5 µM | 0.477 µM | 0.25 | RRQTSMTDFYHS (12-mer modeled after the C-terminal PIP Box of the tumor suppressor p21; Synthesised on CLEAR Amide resin, so the C-terminus is probably an amide (surmised); also called p21 peptide; p21 12-amino acid peptide; source: synthetic peptide (solid phase, HPLC purified)) [p21 12-mer PIP Box peptide mimic] | 
8.5 ± 4.2 µM | 3.4 µM | 0.06 | HRFFAGIVWQHV (12-mer modeled after the reverse PIP Box of Akt, found by a screen of the human genome; Synthesised on CLEAR Amide resin, so the C-terminus is probably an amide (surmised); also called Akt peptide; reverse-PIP Box Akt peptide; source: synthetic peptide (solid phase, HPLC purified)) [Akt 12-mer reverse PIP Box peptide mimic] | 
 |  |  | TLQYLLKHFFKL (PIP Box stretch of the PI3-kinase p85α regulatory subunit (PIK3R1), found by screening the human genome; Made on CLEAR Amide resin, so the C-terminus is probably an amide; also called PI3-kinase (p85α regulatory domain); source: synthetic peptide (solid phase, HPLC purified)) [PI3K (p85α subunit) 12-mer PIP Box peptide] | Kd (recombinant PCNA protein [4]): 1.6 ± 0.6 µM
67.9 ± 15.8 µM | 28.9 µM | 0 | NRQVSITGFFQR (12-mer modeled after the PIP Box of the p66 subunit of DNA polymerase δ; Synthesised on CLEAR Amide resin, so the C-terminus is probably an amide (surmised); also called p66 peptide; source: synthetic peptide (solid phase, HPLC purified)) [DNA polymerase δ (p66 subunit) 12-mer PIP Box peptide mimic] | 
 |  |  | HRFFAGIVWQHV (reverse PIP Box stretch of Akt, found by screening the human genome; Made on CLEAR Amide resin, so the C-terminus is probably an amide; source: synthetic peptide (solid phase, HPLC purified)) [Akt 12-mer reverse PIP Box peptide] | Kd (recombinant PCNA protein [4]): 2 ± 0.4 µM
